B1: hz3F10-3.1 (antibody, human IgG4 S228P, kappa, V domains shown)
VH: QVQLVQSGAEVKKPGSSVKVSCKASGYTFSRYWIEWVRQAPGQGLEWMGEFIPGSDTTNYAQKFQGRVTITADISTSTAYMELSSLRSEDTAVYYCARGGLRRMDYWGQGTLVTVSS
VL: DIQMTQSPSSLSASVGDRVTITCRASSSVSSTYLHWYQQKPGKAPKLLIYTTSTLASGVPSRFSGSGSGTSYTLTISSLQPEDFATYYCQQFSDSTWTFGQGTKLEIKR
notes: humanized 3F10, full-length heavy and light chains
B2: hz3F10-4.1 (antibody, human IgG4 S228P, kappa, V domains shown)
VH: B1 VH
VL: B1 VL with D94E
notes: as for B1
B3: hz3F10-4.2 (antibody, human IgG4 S228P, kappa, V domains shown)
VH: B1 VH with D73E, S77N
VL: B1 VL with D94E
notes: as for B1
B4: hz3F10-3.2 (antibody, human IgG4 S228P, kappa, V domains shown)
VH: B1 VH with D73E, S77N
VL: B1 VL
notes: as for B1
B5: hz14A9-2.4 (antibody, human IgG4 S228P, kappa, V domains shown)
VH: QVQLVQSGAEVKKPGASVKVSCKVSGFNIEDDYIEWVRQAPGQGLEWMGRIDPANDKTKYAQKFQGRVTMTGDTSTNTVYMELSSLRSEDTAVYYCTRPGLRRYYSMDYWGQGTLVTVSS
VL: DIQMTQSPSSLSASVGDRVTITCKASENVVSYVSWYQQKPGKAPKLLIYGASNRYTGVPSRFIGSGSSTDFTLTISSLQPEDFATYYCGQSYSYPLTFGQGTKLEIKR
notes: humanized 14A9, full-length heavy and light chains
B6: hz16E5-1.2 (antibody, human IgG4 S228P, kappa)
heavy: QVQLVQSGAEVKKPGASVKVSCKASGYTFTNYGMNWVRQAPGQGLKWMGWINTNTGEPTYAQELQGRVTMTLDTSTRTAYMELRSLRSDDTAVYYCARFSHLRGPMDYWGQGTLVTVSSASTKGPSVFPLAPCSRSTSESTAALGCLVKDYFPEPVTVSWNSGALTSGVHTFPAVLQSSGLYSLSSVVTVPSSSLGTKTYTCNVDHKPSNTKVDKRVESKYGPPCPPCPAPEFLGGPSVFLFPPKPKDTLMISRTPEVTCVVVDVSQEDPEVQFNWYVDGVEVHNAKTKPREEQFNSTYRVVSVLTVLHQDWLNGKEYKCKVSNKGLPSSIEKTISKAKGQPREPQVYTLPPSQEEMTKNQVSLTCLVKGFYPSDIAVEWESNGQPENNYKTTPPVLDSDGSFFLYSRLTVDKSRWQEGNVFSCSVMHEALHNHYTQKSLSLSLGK
light: DIQMTQSPSSLSASVGDRVTITCRSSQSLVHSNGYTYLHWYQQKPGKAPKLLIYKVSNRFSGVPSRFSGSGSGTDFTLTISSLQPEDFATYYCSQSTHVPPTFGQGTKLEIKRTVAAPSVFIFPPSDEQLKSGTASVVCLLNNFYPREAKVQWKVDNALQSGNSQESVTEQDSKDSTYSLSSTLTLSKADYEKHKVYACEVTHQGLSSPVTKSFNRGEC
notes: humanized 16E5, full-length heavy and light chains
B7: hz16E5-3.1 (antibody, human IgG4 S228P, kappa)
heavy: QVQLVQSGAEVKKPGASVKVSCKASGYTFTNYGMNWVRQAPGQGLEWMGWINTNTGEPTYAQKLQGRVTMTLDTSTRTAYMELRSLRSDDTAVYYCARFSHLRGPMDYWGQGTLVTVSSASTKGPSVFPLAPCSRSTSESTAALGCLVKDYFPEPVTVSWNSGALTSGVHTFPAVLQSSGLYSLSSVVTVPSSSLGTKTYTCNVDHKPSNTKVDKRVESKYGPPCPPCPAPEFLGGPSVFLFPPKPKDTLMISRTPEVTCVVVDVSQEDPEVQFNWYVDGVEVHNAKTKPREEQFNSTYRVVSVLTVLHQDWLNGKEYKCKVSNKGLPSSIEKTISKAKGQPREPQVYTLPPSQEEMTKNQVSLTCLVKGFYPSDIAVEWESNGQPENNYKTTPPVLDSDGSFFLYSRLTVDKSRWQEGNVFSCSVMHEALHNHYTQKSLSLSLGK
light: B6 light with I2A
notes: as for B6
B8: hz16E5-1.1 (antibody, human IgG4 S228P, kappa)
heavy: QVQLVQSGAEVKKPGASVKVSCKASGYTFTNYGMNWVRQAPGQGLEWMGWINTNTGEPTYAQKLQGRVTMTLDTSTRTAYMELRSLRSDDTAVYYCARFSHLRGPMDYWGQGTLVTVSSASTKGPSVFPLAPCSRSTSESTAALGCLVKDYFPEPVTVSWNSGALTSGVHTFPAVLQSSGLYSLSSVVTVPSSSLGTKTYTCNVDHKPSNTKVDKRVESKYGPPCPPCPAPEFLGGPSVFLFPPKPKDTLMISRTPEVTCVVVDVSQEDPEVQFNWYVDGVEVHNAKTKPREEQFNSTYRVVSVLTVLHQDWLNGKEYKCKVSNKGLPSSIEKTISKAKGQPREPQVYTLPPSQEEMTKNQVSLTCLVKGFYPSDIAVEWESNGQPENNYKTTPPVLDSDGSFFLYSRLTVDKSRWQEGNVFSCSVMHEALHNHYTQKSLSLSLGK
light: B6 light
notes: as for B6
B9: hz16E5-3.3 (antibody, human IgG4 S228P, kappa)
heavy: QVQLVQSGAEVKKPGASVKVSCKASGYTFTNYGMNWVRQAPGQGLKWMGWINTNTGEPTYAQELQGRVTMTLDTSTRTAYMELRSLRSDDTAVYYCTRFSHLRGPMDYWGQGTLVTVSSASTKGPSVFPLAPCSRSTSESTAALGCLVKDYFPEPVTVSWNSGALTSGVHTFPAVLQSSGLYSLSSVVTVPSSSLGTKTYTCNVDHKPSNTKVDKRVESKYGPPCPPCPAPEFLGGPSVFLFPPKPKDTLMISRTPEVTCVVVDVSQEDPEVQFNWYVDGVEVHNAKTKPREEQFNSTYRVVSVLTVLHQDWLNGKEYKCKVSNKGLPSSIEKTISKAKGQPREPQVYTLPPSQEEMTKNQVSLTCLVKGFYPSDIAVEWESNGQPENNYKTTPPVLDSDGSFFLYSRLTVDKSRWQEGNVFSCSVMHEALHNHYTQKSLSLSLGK
light: B6 light with I2A
notes: as for B6
B10: hz16E5-1.3 (antibody, human IgG4 S228P, kappa)
heavy: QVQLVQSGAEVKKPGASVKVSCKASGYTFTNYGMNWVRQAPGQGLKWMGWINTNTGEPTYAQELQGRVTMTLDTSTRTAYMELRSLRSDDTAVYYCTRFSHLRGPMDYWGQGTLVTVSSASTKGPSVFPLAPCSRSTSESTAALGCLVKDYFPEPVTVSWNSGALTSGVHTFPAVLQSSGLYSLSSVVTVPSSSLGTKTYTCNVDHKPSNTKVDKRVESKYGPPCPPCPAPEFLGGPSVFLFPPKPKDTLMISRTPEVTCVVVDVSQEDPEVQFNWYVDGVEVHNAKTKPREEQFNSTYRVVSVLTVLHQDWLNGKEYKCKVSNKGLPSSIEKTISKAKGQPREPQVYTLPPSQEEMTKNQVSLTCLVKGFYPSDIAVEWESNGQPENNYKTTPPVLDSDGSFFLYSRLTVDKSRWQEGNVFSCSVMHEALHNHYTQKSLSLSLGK
light: B6 light
notes: as for B6
B11: hz16E5-3.2 (antibody, human IgG4 S228P, kappa)
heavy: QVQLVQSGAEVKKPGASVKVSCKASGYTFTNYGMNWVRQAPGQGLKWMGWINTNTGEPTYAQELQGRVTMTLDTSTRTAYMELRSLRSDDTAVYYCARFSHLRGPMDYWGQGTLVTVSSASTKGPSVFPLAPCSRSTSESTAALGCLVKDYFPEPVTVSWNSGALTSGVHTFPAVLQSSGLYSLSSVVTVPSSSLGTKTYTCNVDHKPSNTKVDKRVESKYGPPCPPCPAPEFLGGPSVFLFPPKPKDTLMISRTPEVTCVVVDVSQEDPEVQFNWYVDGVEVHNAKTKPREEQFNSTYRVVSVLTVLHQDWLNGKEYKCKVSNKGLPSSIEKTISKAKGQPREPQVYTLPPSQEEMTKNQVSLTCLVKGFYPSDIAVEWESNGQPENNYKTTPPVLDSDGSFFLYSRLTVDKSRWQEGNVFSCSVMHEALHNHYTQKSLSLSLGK
light: B6 light with I2A
notes: as for B6

Positions count from the first letter of the chain named.

The first experiment deals with T1, human CD47 protein, His Tag (ACRObiosystems, Cat. No. CD7-H5227) (human, UniProt Q08722 19-139).
T1 construct: bought reagent; also called CD47-His; hCD47-His Tag; not shown: His tag
The experiment can be described thus: Biacore SPR, 25 C, antibody captured on CM5 chip. On the technique in general: In SPR one partner is held on a chip, and binding of the other changes the refractive index at the surface.
As a reminder, the Kd is the free concentration of one partner at which half of the binding sites on the other are occupied at equilibrium, for simple one-to-one binding. For B1, the dissociation constant (Kd) was 1.53 nM.

B2 gave a dissociation constant (Kd) of 1.42 nM.

Turning to B3, the Kd amounted to 1.34 nM.

Take B4: the affinity, expressed as Kd, was 1.15 nM.

With B5, the Kd came out at 8.55 nM.

The molecule B6 yielded an equilibrium dissociation constant (Kd) of 9.31 nM.

B7 came in with a Kd of 6.28 nM.

The molecule B8 showed a dissociation constant Kd of 18.9 nM.

The molecule B9 registered a Kd of 7.13 nM.

The molecule B10 registered a Kd of 15.3 nM.

As for B11, the equilibrium dissociation constant (Kd) worked out at 17.1 nM.

In the next experiment the target is T2, cynomolgus/rhesus macaque CD47 protein, His Tag (ACRObiosystems, Cat. No. CD7-C52H1) (cynomolgus monkey (cynomolgus/rhesus …, UniProt A0A2K5X523 19-141)).
T2 construct: bought reagent; also called Cynomolgus monkey CD47 protein
T2 sequence (A0A2K5X523 entry or part of it limits assumed): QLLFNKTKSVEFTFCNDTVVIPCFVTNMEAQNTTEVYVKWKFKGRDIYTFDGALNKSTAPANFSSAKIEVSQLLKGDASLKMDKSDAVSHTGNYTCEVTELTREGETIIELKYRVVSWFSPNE
The experiment can be described thus: Biacore SPR, 25 C, antibody captured on CM5 chip.
Turning to B2, binding was characterised by a dissociation constant (Kd) of 1.62 nM.

On to B3, for which the Kd stood at 1.86 nM.

B4 came in with a dissociation constant Kd of 1.47 nM.

As for B5, the dissociation constant Kd is 2 nM.

On to B6, for which the equilibrium dissociation constant (Kd) was found to be 2.26 nM.

B7: the Kd was determined as 3.28 nM.

Molecule B8 gave a dissociation constant Kd of 4.77 nM.

Molecule B9 displayed a Kd of 1.87 nM.

For the molecule B10, binding was put at a Kd of 2.73 nM.

Regarding B11, binding was characterised by a dissociation constant (Kd) of 3.1 nM.

Another experiment deals with T3, CD47 on the red cell surface (Homo sapiens (Human), UniProt Q08722 19-323). Put plainly: flow cytometry on fixed red cells, antibody 10 µg/mL. (In general: In flow cytometry, cells or beads pass a laser one at a time.)
Method: (§1) Anticoagulated blood was collected and well mixed with an equal amount of normal saline. The mixture was centrifuged at 2000 rpm/min for 5 min, and the supernatant was removed. […] In the first two washings, the mixture was centrifuged at 2000 rpm/min for 5 min, and in the last washing, the mixture was centrifuged at 2000 rpm/min for 10 min, and the supernatant was removed.
In turn, B1 gave an MFI of 41400 MFI.

Molecule B2 gave an MFI of 41900 MFI.

For the molecule B3, the MFI is 45600 MFI.

In the case of B4, the MFI was determined as 45300 MFI.

In turn, B5 showed an MFI of 15000 MFI.

Regarding B6, the MFI came out at 4730 MFI.

B7: the MFI amounted to 5140 MFI.

Turning to B8, the MFI is 6460 MFI.

B9 had an MFI of 3870 MFI.

B10 yielded an MFI of 4880 MFI.

The molecule B11 had an MFI of 4200 MFI.

In another experiment the target is T4, human CD47 protein on CHO-K1-CD47 cells (human, UniProt Q08722 19-323).
T4 construct: whole, on cells; also called CHO-K1 cells expressing human CD47 protein
Put plainly: cell binding, CHO-K1-CD47 cells, high content imaging.
Method: A cell binding assay of anti-CD47 antibodies (chimeric or humanized) was performed based on the binding to a CHO-K1 cell line stably expressing CD47. CHO-K1-CD47 cells (CHO-K1 cells expressing human CD47 protein) were added to each well of a 96-well plate (Eppendorf, Cat. No. C030730.119) at 1.2×10⁴ cells per well and incubated with anti-CD47 antibodies (20 μg/mL, 1:4 dilution in PBS) at room temperature for 1-2 h. […] The cells were incubated at room temperature for 30 min. The cells were washed three times with PBS buffer. A nuclear dye Hoechst (Sigma, Cat. No. B2261) was diluted with PBS buffer at a dilution ratio of 1:500 and then added to each well at 100 μL/well for staining for 10 min. The cells were washed 3 times with PBS and analyzed using a high content screening system (manufacturer: PerkinElmer; model: Operetta).
A word on the EC50: it is the concentration at which the effect is half-maximal. The molecule B1 had an EC50 of 1.12 µg/mL.

Consider B2, for which the EC50 was determined as 1.16 µg/mL.

Take B3: the EC50 came out at 1.26 µg/mL.

With B4, the response was half-maximal at 1.2 µg/mL (EC50).

Molecule B5 yielded an EC50 of 0.471 µg/mL.

Regarding B7, the midpoint of the response, the EC50, lay at 5.88 µg/mL.

B8 yielded a half-maximal effective concentration (EC50) of 3.87 µg/mL.

For B9, the EC50 worked out at 40.5 µg/mL.

Molecule B10 gave a concentration for a half-maximal effect (EC50) of 18.8 µg/mL.

For a further experiment, the target named is T1, human CD47 protein, His Tag …. Put plainly: ELISA, plate coated with CD47-His.
Method: An ELISA binding assay was performed based on human CD47 protein and anti-CD47 chimeric antibodies or anti-CD47 humanized antibodies. […] The wells were aspirated, and non-specific binding sites were blocked by adding 100 L/well of a blocking solution (PBS with 1% (w/v) bovine serum albumin (BSA, Sigma, Cat. No. B2064-100G)) and incubating the plate at 37° C. for 1 h. After the 96-well plate was washed three times with a washing buffer (PBS with 0.01% (w/v) Tween 20 (Sigma, Cat. No. P9416-100ML)), 100 μL/well of 1:4 serial dilutions (from 30 g/mL) of anti-CD47 antibodies (see Table 3 for chimeric antibodies, and see Table 4 for humanized antibodies) in blocking solution were added, and the plate was incubated at room temperature for 2 h. […] After the 96-well plate was washed, 100 μL/well of a substrate solution TMB (TIANGEN, Cat. No. PA107-01) was added, and the 96-well plate was incubated at room temperature for 10 min. 100 μL/well of a stop solution (1 M H₂SO₄) was added to stop the reaction. Colorimetric signals were generated and read at 450 nm using a multifunctional microplate reader (manufacturer: PerkinElmer; model: EnVision). Data were analyzed using GraphPad Prism5, and EC₅₀ was calculated.
For B1, the half-maximal effective concentration (EC50) was found to be 0.127 µg/mL.

B2: the 50% effective concentration (EC50) is 0.115 µg/mL.

In the case of B3, the midpoint of the response, the EC50, lay at 0.181 µg/mL.

B4: the concentration for a half-maximal effect (EC50) stood at 0.166 µg/mL.

B5 registered an EC50 of 0.339 µg/mL.

Molecule B6 showed a concentration for a half-maximal effect (EC50) of 0.16 µg/mL.

B7: the concentration giving a half-maximal response (EC50) was 0.14 µg/mL.

B8: a half-maximal effect (EC50) was put at 0.306 µg/mL.

For B9, it took 0.241 µg/mL to reach a half-maximal effect (EC50).

Turning to B10, the concentration giving a half-maximal response (EC50) was found to be 0.138 µg/mL.

The molecule B11 had an EC50 of 0.215 µg/mL.

In a further experiment the target is CD47 on HL60 cells (UniProt Q08722 19-323, limits assumed). The experiment can be described thus: cell-based or functional assay.
For the molecule B1, the “rate of phagocytosis, antibody 1 µg/mL” value was 50.6% and the “rate of phagocytosis, antibody 10 µg/mL” value is 58.7%.

On to B2, for which the “rate of phagocytosis, antibody 1 µg/mL” value worked out at 50.3% and the “rate of phagocytosis, antibody 10 µg/mL” value was 58.3%.

Turning to B3, the “rate of phagocytosis, antibody 1 µg/mL” value turned out to be 46.2% and the “rate of phagocytosis, antibody 10 µg/mL” value came out at 31.7%.

In the case of B4, the “rate of phagocytosis, antibody 1 µg/mL” value was found to be 47% and the “rate of phagocytosis, antibody 10 µg/mL” value was determined as 37.1%.

Consider B5, for which the “rate of phagocytosis, antibody 1 µg/mL” value was 81.7% and the “rate of phagocytosis, antibody 10 µg/mL” value is 81.7%.

Regarding B6, the “rate of phagocytosis, antibody 1 µg/mL” value came to 5.1% and the “rate of phagocytosis, antibody 10 µg/mL” value stood at 17.8%.

Regarding B7, the “rate of phagocytosis, antibody 1 µg/mL” value was found to be 6.37% and the “rate of phagocytosis, antibody 10 µg/mL” value is 24.2%.

For B8, the “rate of phagocytosis, antibody 1 µg/mL” value was 14.8% and the “rate of phagocytosis, antibody 10 µg/mL” value turned out to be 4.02%.

For B9, the “rate of phagocytosis, antibody 1 µg/mL” value stood at 11.6% and the “rate of phagocytosis, antibody 10 µg/mL” value is 4.7%.

As to B10, the “rate of phagocytosis, antibody 1 µg/mL” value is 3.03% and the “rate of phagocytosis, antibody 10 µg/mL” value came to 4.33%.

As for B11, the “rate of phagocytosis, antibody 1 µg/mL” value is 3.02% and the “rate of phagocytosis, antibody 10 µg/mL” value worked out at 2.03%.

For another experiment, the target named is T3, CD47 on the red cell surface. The experiment can be described thus: cell-based or functional assay.
Take B1: the “red cell agglutination, lowest concentration causing it” value (“red cell agglutination” below) came out at 3.3 µg/mL.

Regarding B2, the “red cell agglutination” value turned out to be 3.3 µg/mL.

With B3, the “red cell agglutination” value stood at 3.3 µg/mL.

B4: the “red cell agglutination” value stood at 3.3 µg/mL.

As for B6, the “red cell agglutination” value was 3.3 µg/mL.

For the molecule B7, the “red cell agglutination” value was 3.3 µg/mL.

Consider B8, for which the “red cell agglutination” value came to 3.3 µg/mL.

Regarding B9, the “red cell agglutination” value amounted to 3.3 µg/mL.

In the case of B10, the “red cell agglutination” value came out at 3.3 µg/mL.

B11: the “red cell agglutination” value stood at 3.3 µg/mL.

The next experiment deals with T1, human CD47 protein, His Tag …. Put plainly: ELISA, CD47-His coated, competition with Human-SIRPα-mFc.
Method: The plate was let stand at 2-8° C. overnight. The wells were aspirated to remove the coating buffer and blocked with 100 μL/well of a blocking solution (PBS with 1% (w/v) bovine serum albumin (BSA, Sigma, Cat. No. B2064-100G)) by incubation at 37° C. for 1 h. The 96-well plate was washed with a washing buffer (PBS with 0.01% (w/v) Tween 20 (Sigma, Cat. No. P9416-100ML)). […] After the 96-well plate was washed with PBS washing buffer, anti-CD47 chimeric antibodies or anti-CD47 humanized antibodies (see Table 8 for chimeric antibodies, and see Table 9 for humanized antibodies) were added. 4-fold dilution was performed with PBS buffer from a starting concentration of 20 μg/mL, with 8 gradients obtained. The plate was incubated at room temperature for 1.5 h. […] After the 96-well plate was washed with PBS buffer, 100 μL/well of a substrate solution TMB (TIANGEN, Cat. No. PA107-01) was added, and the plate was incubated at room temperature for color development for 10 min. 100 μL/well of 1 M H₂SO₄ was added to stop the reaction. Colorimetric signals were generated and read at 450 nm using a multifunctional microplate reader (manufacturer: PerkinElmer; model: EnVision). Data were analyzed using GraphPad Prism5, and EC₅₀ was calculated.
As usually defined, the IC50 is the concentration that inhibits the measured activity by half. In turn, B1 had an IC50 of 1.68 µg/mL.

With B2, the IC50 is 1.95 µg/mL.

In turn, B3 returned an IC50 of 1.74 µg/mL.

In turn, B4 registered an IC50 of 1.74 µg/mL.

In the case of B5, the IC50 turned out to be 0.621 µg/mL.

As for B6, the concentration for half-maximal inhibition (IC50) turned out to be 2.94 µg/mL.

In the case of B7, the half-maximal inhibitory concentration (IC50) stood at 15.2 µg/mL.

As to B9, the IC50 was 2 µg/mL.

B10 registered a half-inhibitory concentration (IC50) of 2.32 µg/mL.

The molecule B11 registered a half-maximal inhibitory concentration (IC50) of 2.05 µg/mL.

The target of the next experiment is T3, CD47 on the red cell surface. Put plainly: flow cytometry on fixed red cells, antibody 1 µg/mL.
Method: as §1
B1 showed an MFI of 6700 MFI.

In turn, B2 had an MFI of 5980 MFI.

B3 had an MFI of 4810 MFI.

In turn, B4 displayed an MFI of 5100 MFI.

In turn, B5 yielded an MFI of 5240 MFI.

Turning to B6, the MFI stood at 913 MFI.

B7 yielded an MFI of 945 MFI.

The molecule B8 displayed an MFI of 945 MFI.

In the case of B9, the MFI stood at 848 MFI.

The molecule B10 yielded an MFI of 894 MFI.

Take B11: the MFI amounted to 860 MFI.
